These results are taken from publication PMC8431786, “In Search of Monocot Phosphodiesterases: Identification of a Calmodulin Stimulated Phosphodiesterase from Brachypodium distachyon” (International Journal of Molecular Sciences, 2021).

Substrate in this data set: [H][C@@]12COP(=O)(O)O[C@@]1([H])[C@@H](O)[C@H](n1cnc3c(=O)[nH]c(N)nc31)O2
The data set can be described thus: LC-MS/MS of GMP formed, Michaelis-Menten fit. Type of data set: biochemical, Brachypodium distachyon. The note with it: 3 mM Tris-HCl pH 8.0, 37 °C, 25 min, 0.5 mM MgCl2 and MnCl2, 0.1% 2-mercaptoethanol, no calmodulin.

B1: BDPDE1 (Brachypodium distachyon) (protein)
chain: MWPASKTQMHMFCLCRLDQPSCLVIGSARSINASTPKELSQNASSREIENRLLRVRRSATTGRSEPLARFNHPIQFQHARPPPAPAHGAHEGKKMAAAAVRRAEELVEREMSGRDASHDAAHALRVRDLALSLAAEQGLSSPDRLLIVELAALLHDIGDYKYTKDNMEDMSIVERFLQDVGLEKGQREEIVSIITGMGFKNEVSGKAAEPTLEFAVVQDADRLDAIGAIGVARCFTYGGSKNSALHDPKVLPRDNLSKEKYMSKEKQTSINHFHEKLFKLKDMMKTEAGKRRAEKRHKFMEDFVAEFYEEWSGRA
notes: GST-BDPDE1 fusion (pGEX-6P-2, N-terminal GST kept), cDNA from leaf and stalk RNA, E. coli BL21(DE3) pLysS, glutathione-Sepharose
As to B1, the Km worked out at 113.3 µM.

As usually defined, the Km is the substrate concentration at which the rate is half of its maximum.
